The values that follow come from paper PMC10653929, “Activities, substrate specificity, and genetic interactions of fission yeast Siw14, a cysteinyl-phosphatase-type inositol pyrophosphatase” (mBio, 2023).

For series [1], the target named is T1, SpSiw14; Siw14-(1-287) (Schizosaccharomyces pombe, UniProt Q9UUF3).
T1 construct: full length aa 1-287, E. coli BL21(DE3), His10Smt3 tag removed with Ulp1, monomer by gel filtration
T1 sequence (Q9UUF3 1-287): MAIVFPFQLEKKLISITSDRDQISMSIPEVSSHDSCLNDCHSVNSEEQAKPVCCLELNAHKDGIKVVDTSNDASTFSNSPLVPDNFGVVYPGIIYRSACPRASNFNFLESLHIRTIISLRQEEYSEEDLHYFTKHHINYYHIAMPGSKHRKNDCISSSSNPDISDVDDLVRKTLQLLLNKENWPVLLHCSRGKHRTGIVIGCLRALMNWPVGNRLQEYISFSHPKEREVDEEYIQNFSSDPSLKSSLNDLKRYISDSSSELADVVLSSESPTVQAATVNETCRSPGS
The experiment in a line: inhibition of p-nitrophenylphosphate hydrolysis. In kind it is biochemical. The text has this: inhibition of p-nitrophenylphosphate hydrolysis on SpSiw14; Siw14-(1-287) | Phosphate and sulfate elicited a similar concentration-dependent inhibition of SpSiw14 phosphatase activity with an IC50

The target in series [2] is Cys403 (UniProt position 403, RPVIHCRAGVG). The experiment in a line: chemical modification. The settings on record: cited from earlier work.
Substrate in series [3]: O=[N+]([O-])c1ccc(OP(=O)(O)O)cc1
The experiment in a line: purified protein. In kind it is biochemical, Schizosaccharomyces pombe. The settings on record: 25 mM Tris-acetate pH 5.0, 1 mM DTT, 37°C, no divalent cation.

Substrate in series [4]: O=P(O)(O)OP(=O)(O)O
The experiment in a line: phosphate release by Malachite Green, Michaelis-Menten fit. In kind it is biochemical, Schizosaccharomyces pombe. The note with it: 25 mM Tris-acetate pH 5.0, 1 mM DTT, 37°C, no divalent cation, apparent kcat per PPi consumed.

The IC50 is the midpoint of a concentration-inhibition curve. For orientation: pKa means the pH at which an ionisable group is half protonated. By Km is commonly meant the concentration of substrate that gives half-maximal velocity. The term kcat denotes the number of substrate molecules converted per active site and unit of time at saturation.

In series [1], `O=S(=O)(O)O` [sulfate] returned an IC50 of around 5 mM.
On to “Yersinia protein tyrosine phosphatase (Yersinia PTPase, YopH/Yop51) (Yersinia sp. (species not stated in the article; inferred Yersinia enterocolitica))”, for which the pKa in series [2] is on record as 4.67.
`O=P(O)(O)O` [inorganic phosphate] showed a concentration for half-maximal inhibition (IC50) in series [1] of around 5 mM.

B1: SpSiw14; Siw14-(1-287) (Schizosaccharomyces pombe 972h-) (protein)
chain: T1 sequence (Q9UUF3 1-287)
notes: full length aa 1-287, E. coli BL21(DE3), His10Smt3 tag removed with Ulp1, monomer by gel filtration
For the molecule B1, in series [3], the Michaelis-Menten constant (Km) came to 1640 ± 180 µM and the kcat came out at 1.24 ± 0.045 s⁻¹. In series [4], the Km was 1130 ± 340 µM and the kcat amounted to 0.443 ± 0.0817 s⁻¹.
